The values below come from patent publication US20060165680A1.

In experiment [1] the target is TAG-72 positive bovine submaxillary mucin (BSM) (bovine). Put plainly: SPR (BIAcore X), control Fab over immobilised BSM, BSA reference. On the technique in general: SPR reads the build-up and loss of mass on a sensor chip optically.
Experiment [2] addresses TAG-72 expressed on the cell surface of Jurkat cells (human). Put plainly: flow cytometry on Jurkat cells expressing cell-surface TAG-72, 1 ug antibody, FITC-conjugated mouse anti-human antibody.
Experiment [3] shares this target. Put plainly: flow cytometry on Jurkat cells expressing cell-surface TAG-72, antibody amount not given, FITC-conjugated mouse anti-human antibody. (In general: A flow cytometer gives signals particle by particle.)

On to Fab derived from human IgG, for which, in experiment [1], the off-rate (koff) (usually the first-order rate constant of dissociation) was 0.0138 s⁻¹.

Substance Fab derived from murine CC49 gave a koff in experiment [1] of 0.000104 s⁻¹.

As to HuCC49 (antibody), in experiment [2], the % Gated, marker M1 amounted to 70.8%; the % Gated, marker M2 came out at 29.4%; the % Total, marker M1 is 60.6%; the % Total, marker M2 is 25.2%. In experiment [2], this substance came in with a Mean, marker All of 18; a Mean, marker M1 of 4.36; a Mean, marker M2 of 50.9.

Take cCC49 (antibody): in experiment [2], the % Gated, marker M1 was 27.2%; the % Gated, marker M2 was determined as 73%; the % Total, marker M1 was determined as 12.2%; the % Total, marker M2 came to 32.7%. In experiment [2], the Mean, marker All was found to be 41.6; the Mean, marker M1 amounted to 5.92; the Mean, marker M2 turned out to be 54.8.

Take “human immunoglobulin G (HuIgG) control (antibody)”: in experiment [3], the % Gated, marker M1 is 99.7%; the % Gated, marker M2 is 0.31%; the % Total, marker M1 is 92.1%; the % Total, marker M2 is 0.29%. For the same substance, in experiment [3], the Mean, marker All worked out at 3.54; the Mean, marker M1 is 3.49; the Mean, marker M2 was found to be 20.5.
